We go through 15 molecules from US20230382979A1 (ADAPTIVE BIOTECHNOLOGIES, published 2023).

The labels stand for the following.
B1: antibody 935 (antibody, V domains shown)
VH: EVQLVESGGGLVQPGGSLRLSCAASGFTVSSNYMSWVRQAPGKGLEWVSVIYSGGSTFYADSVKGRFTISRDNSRNTLYLQMNSLRAEDTAVYYCARDWGEFFFDFWGQGALVTVSS
VL: EIVLTQSPGTLSLSPGERATLSCRASQTISSSYLAWYQQKPGQAPRLLISGASSRATGIPDRFSGSGSGTDFTLTISRLEPEDFAVYYCQQYGSSPRTFGQGTNVEIK
B2: antibody 1439 (antibody, V domains shown)
VH: QVQLQESGPGLVKPSETLSLTCTVSGDSISTYYWSWIRQPPGKGLEWIGYIHYSGSTNYNPSLKSRVAVSVDTSKNQFSLKLSSVTAADTAVYYCARGGGVFGVVINFDYWGQGILVTVSS
VL: NFMLTQPYSVSESPGKTVTISCTRSSGSIASNYVQWYQQRPGSAPTTVIYEDNQRPSGVPDRFSGSIDSSSNSASLTISGLKTEDEADYYCQSRDSSNPVVFGGGTKLTVL
B3: antibody 1231 (antibody, V domains shown)
VH: QVQLVQSGSELKKPGASVKVSCTGYGYTFTSYAMNWVRQAPGQGLEWMGWINTNTGHPAYAQGFTGRFVFSLDSSVSTAYLQISSLKAEDTAVYYCATTIRAGGYFDFWGQGTLVTVSS
VL: DIQLTQSPSFLSASVGDRVTITCRASQGISSYLAWFQQKPGKAPKLLIYVVSILQSGVPSRFSGSGSGTEFTLTISSLQPEDFATYYCQQLNSYPYTFGQGTKLEIK
B4: antibody 767 (antibody, V domains shown)
VH: QVQVVQSGAEVKKPGASVKVSCTASGHTFTGYAIHWVRQAPGQRLEWMGLINAGGIYRTYSQRFQGRVTITRDTSASTAYMELTGLTSEDTAVYYCARANYGSGSFSDHWGQGTLVTVSS
VL: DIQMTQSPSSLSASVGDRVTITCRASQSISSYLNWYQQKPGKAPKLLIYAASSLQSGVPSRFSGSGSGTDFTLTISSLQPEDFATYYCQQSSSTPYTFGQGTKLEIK
B5: antibody 1213 (antibody, V domains shown)
VH: QMQLVQSGAEVKKTGSSVKVSCEASENTFTNRYLHWVRQAPGQALEWMGWITPFQGNTHYAQKFQDRVTITRDRSMNTVYMELSSLRSEDTAIYYCASGGQYGPGSYYFEFWGQGTLVTVSS
VL: EIVMTQSPATLSVSPGERATLSCRASQSIRNNLAWYRQKPGQAPRLLIYGASTRAAGVPARFSGSGSGTEFTLTISSLQSEDFAVYYCQQYINWPPLTFGGGTKVEIK
B6: antibody 1227 (antibody, V domains shown)
VH: B5 VH with E26G, N27Y, H59N, R74M, I93K, P104A, F109L, F111D
VL: B5 VL with I29V, N31S, A56T, K104R
B7: antibody 2025 (antibody, V domains shown)
VH: QVQLVQSGAEVKKPGASVKVSCKVSGYTLIELSMHWVRQAPGKGLEWMGGFDPEDVETIYAQKFQGRVTMTEDTSTDTAYMELSSLRSEDTAVYYCATAYAVQWRGMIGYWGQGTLVTVSS
VL: QSALTQPASVSGSPGQSITISCTGTSSDVGSYNLVSWYQQHPGKAPKLMIYEVSKRPSGVSNRFSGSKSGNTASLTISGLQAEDEADYYCSSYAGSSTFSYVFGTGTKVTVL
B8: antibody 1679 (antibody, V domains shown)
VH: QITLKESGPTLVKPTQTLTLTCTFSGFSLSTVGVGVAWIRQPPGKALEWLALIYWDDDKRYSPSLKSRLTITKDTSKNHVVLTMTNMDPVDTATYYCAHHIIAALVDVWGKGTTVTVSS
VL: QSALTQPASVSGSPGQSITISCTGTSSDVGGNNYVSWYQHHPGEAPKLMIYEVSNRPSGVSNRFSGSKSGNTASLTISGLQAEDEADYYCSSYTTSSTLVVFGGGSKLTVL
B9: antibody 1671 (antibody, V domains shown)
VH: EVQLVESGGGLVKPGGSLRLSCAASGFTFSTYNMNWVRQAPGKGLEWVSSISSNSNYIYYADSMKGRFTISRDNAKNSLYLQMNSLRAEDTAVYYCARDMDPLPYFDWLLYAFDVWGQGTMVTVSS
VL: B1 VL with T28S, I29V, S31G, S50Y, S95P, P96I, R97F, Q101P, N104K, E106D
B10: antibody 2432 (antibody, V domains shown)
VH: QVQLVQSGAEVKKPGSSVKVSCKASGDTFSSYAISWVRQAPGQGLEWLGGIIPIFGSADYAQKFQGRVTITADEFTSTAYMELSSLRSEDTAVYFCAREKYGDYGEGPLYNFDYWGQGTLVTVSS
VL: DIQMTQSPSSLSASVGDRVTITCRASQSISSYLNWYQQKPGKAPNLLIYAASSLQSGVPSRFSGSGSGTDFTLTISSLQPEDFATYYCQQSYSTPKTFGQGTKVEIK
B11: antibody 2598 (antibody, V domains shown)
VH: QVQLQESGPGLVKPSGTLSLTCVVSGGSISSSNWWSWVRQPPGKGLEWIGETFHSGSFNYNPSLKSRVTISVDKSKNQFSLKLSSVTAADTAIYYCATTRVGYEGHFYYYGMDVWGQGTTVTVSS
VL: DIQMTQSPSSVSASVGDRVTITCRASQGISSWLAWYQQKPGKAPKLLIYAASSLQSGVPSRFSGSGSGTDFTLTISSLQPEDFATYYCQQANRFPWTFGQGTKVEIK
B12: antibody 2080 (antibody, V domains shown)
VH: QVQLQQWGAGLLKPSETLSLTCAVYGGSFSGYYWSWIRQPPGKGLEWIGRINDIGSTDYNPSLKSRVTISVDTSKNQFSLKLTSVTAADTAVYYCAREPFDSEGTFDYWGQGTLVIVSS
VL: DIQMTQPPSTLSASVGDRVTITCRASQSISRWLAWYRQKPGKAPKLLIYDASSLQSGVPSRFSGSGSGTEFTLTISSLQPDDLATYYCQQYNTYPYTFGQGTKLEIK
B13: antibody 2606 (antibody, V domains shown)
VH: EVQLVESGGGLVKPGGSLRLSCAASGFTFSSYSMNWVRQAPGKGLEWVSSITSSSGYMYYADSVKGRFTISRDNAKNSLYLQLNSLRAEDTAVYYCAKDSAFDLWEVRSYYYVMDVWGQGTTVTVSS
VL: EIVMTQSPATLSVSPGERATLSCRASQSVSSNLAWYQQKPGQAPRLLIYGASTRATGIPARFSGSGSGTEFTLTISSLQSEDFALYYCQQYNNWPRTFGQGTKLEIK
B14: antibody 937 (antibody, V domains shown)
VH: EVQLVESGGGLVQPGRSLRLSCAASGFTFDDYAMHWVRQAPGKGLEWVSGISWNSGSIGYADSVKGRFTISRDNAKNSLYLQMNSLKPEDTALYYCAKSTTSCYNGSQCPTKRPKPLESWGQGTLVIVSA
VL: DIQMTQSPSTLSAFVGDRVTITCRASQSINNWLAWYQQKPGEVPKLLIYKASSLENGVPSRFSGSGFGTEFTLTISSLQPDDFAIYYCQQYYSHSHTFGQGTKLEIK
B15: antibody 2646 (antibody, V domains shown)
VH: QVQLVQSGAEVKKPGASVKVSCKVSGYTLTELSIHWVRQAPGKGLEWMGGFDPEDAETIYAQKFQGRVTMTEDTSTDTAYMELSSLRSEDTAVYYCATATAVAGTVFNYQYHYGLDFWGQGTTVTVSS
VL: not shown

Changes are numbered by the printed parent chain.

What is called EC50 is the concentration at which the effect is half-maximal. The low end stands for higher potency in that assay, the high end for lower potency in that assay. In general, Kd refers to the equilibrium constant for the complex coming apart. Low values mean a tighter complex, high ones a looser complex. What is called IC50 is the concentration that inhibits the measured activity by half. A high value points to a need for much substance.

For one assay, the target named is T1, Receptor-binding domain (RBD) of the SARS-CoV-2 spike protein, WA01/2020 strain (SARS-CoV-2, WA01/2020 strain, UniProt P0DTC2 319-541). Nature of the assay: dose-response ELISA on coated antigen. On the technique in general: An ELISA detects its analyte on a solid surface through an enzyme-linked reagent.
In turn, B1 displayed an EC50 of 24 pM.

In the case of B2, the response was half-maximal at 9.9 pM (EC50).

For B3, a half-maximal response (EC50) required 18 pM.

In the case of B4, the response was half-maximal at 3470 pM (EC50).

B5 showed an EC50 of 51 pM.

On to B6, for which the EC50 was 107 pM.

Consider B7, for which the response was half-maximal at 113 pM (EC50). The EC50 values of the last two molecules are within 1.5-fold of each other.

Consider B8, for which a half-maximal response (EC50) required 3 pM.

In the next assay the target is SARS-CoV-2 spike protein, B1.1.7 (alpha variant), borne on lentiviral pseudovirus (SARS-CoV-2, B1.1.7). The assay can be described thus: cell-based or functional assay.
On to B1, for which the “Pseudo Neut, B1.1.7 IC50 (pM)” value was found to be 1170 pM.

The next assay has as its target T1, Receptor-binding domain (RBD) of the …. Nature of the assay: SPR (Biacore 8K), antigen immobilized, antibody injected. On the technique in general: In SPR one partner is held on a chip, and binding of the other changes the refractive index at the surface.
B1 registered a Kd of 406 pM. This counts as sub-nanomolar.

B2 yielded a Kd of 17.6 pM.

As for B3, the Kd worked out at 2540 pM.

Molecule B4 registered a Kd of 24300 pM.

As for B5, binding was characterised by a dissociation constant (Kd) of 1720 pM.

With B6, the Kd worked out at 2740 pM.

Take B7: the Kd was 7130 pM.

In the case of B8, the Kd came to 1010 pM.

For another assay the target is unchanged. The assay can be described thus: ELISA, antibody blocks RBD binding to human ACE2.
On to B1, for which the IC50 came to 830 pM.

For the molecule B2, the concentration for half-maximal inhibition (IC50) was 117 pM.

Molecule B3 displayed an IC50 of 3690 pM.

On to B4, for which the IC50 is 20900 pM.

B5 yielded an IC50 of 7740 pM.

For B6, the IC50 was determined as 14500 pM.

As for B8, the half-inhibitory concentration (IC50) amounted to 70 pM.

The target of another assay is SARS-CoV-2 spike protein on live virus, strain USA-WA1/2020 (SARS-CoV-2, WA01/2020 strain, UniProt P0DTC2 14-1273). The assay can be described thus: cell-based or functional assay.
With B1, the “Live Neut, WA1/2020 IC50 (pM)” value came out at 64 pM.

Regarding B9, the “Live Neut, WA1/2020 IC50 (pM)” value was 9 pM.

Regarding B3, the “Live Neut, WA1/2020 IC50 (pM)” value came to 9510 pM.

In the case of B10, the “Live Neut, WA1/2020 IC50 (pM)” value is 26 pM.

On to B11, for which the “Live Neut, WA1/2020 IC50 (pM)” value turned out to be 586 pM.

As to B12, the “Live Neut, WA1/2020 IC50 (pM)” value is 169 pM.

For the molecule B4, the “Live Neut, WA1/2020 IC50 (pM)” value was 1730 pM.

As for B13, the “Live Neut, WA1/2020 IC50 (pM)” value stood at 474 pM.

For B14, the “Live Neut, WA1/2020 IC50 (pM)” value is 140 pM.

On to B5, for which the “Live Neut, WA1/2020 IC50 (pM)” value is 2590 pM.

As to B6, the “Live Neut, WA1/2020 IC50 (pM)” value turned out to be 1490 pM.

As for B15, the “Live Neut, WA1/2020 IC50 (pM)” value came out at 19 pM.

Turning to B7, the “Live Neut, WA1/2020 IC50 (pM)” value was determined as 118 pM.

As to B8, the “Live Neut, WA1/2020 IC50 (pM)” value was 19 pM.
